test: yeast display, Sf9 membrane polyspecificity reagent, FACS + sequencing; frameworks hold sequencing errors
Outline: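 Synthetic nanobody libraries on Saccharomyces cerevisiae BJ5465 were galactose-induced for 36–48 hours, stained 1 hour at 4 °C with 10% biotinylated, detergent-solubilized Sf9 membrane reagent and enriched on streptavidin microbeads. FACS then separated cells into low and high (top ~1%) gates by anti-HA (expression) and streptavidin (reagent binding) fluorescence. Genes were colony-PCR amplified, MiSeq 2 × 250 sequenced and CDR-length filtered. A clone's polyreactivity label is that of its gate of origin.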

| Sequence | polyreactivity (PSR sort gate) |
| --- | --- |
| QVPLVESGGGLVQGGGSLRLSCAASGSIFRGNAMGWYRQAPGKERELVAAISKSGGSTYYADSVKGRFTISRDNAKNTVYLHMNSLKPEDTAVYYCAARTTYLYGRYYWGQGTQVTVSS | low polyreactivity |
| QVQLVESGGGLVQAGGILRLICAASGSTFSTYAMGWYRPAPGKERELVAAIRFSGGTTYYADSVKGRFTISRDNAKNSVYLQMYCLKPEDTAVYYCAAVYISRNFFGRARGDYWGQGTEVTVSS | low polyreactivity |
| QVQLVESGGGLVQAGGSLRLSCAASGSIISINAMGWYRQAPGKERELVAAITWSGGSTYYADSVKGRVTISRDNAKNTVYLQMNSLKPEDTAVYYCAAAFWFQRGTGYYTSKFDYWGQGTQVTVSS | low polyreactivity |
| QVQLVESGGGLVHAGGSLRLSCAASGIIFSWYAMGWYRQAPGKERELVAAITSDGNTYYADSVKGRFTISRDNAKNTVYLQMNSLKPEDTAVYYCIARTYVRRPLGYWGQGWQVTVSS | high polyreactivity |
| QVQLVESGGGLVQAGGSLRLSCAASGRTFVDYDMGWYRQAPGKERELVADINSGGSAYYADSVKGRFTISRDNAKNTVYLQMNSLKPEDTAVYYCAASYYGDNKYDYWGQGTQVTVSS | high polyreactivity |
| QVQLVESGAGLVQAGGSLRLSCAASGRIFYWYAMGWYRQAPGKERELVAAIRRRVGSTYYADSVKGRFTISRDNAKNTVYLQMNSLKPEDTAVYYCAAVITSDGARYDYWGQGTQVTVSS | high polyreactivity |
| QVQLVESGGGLVQAGGSLRLSCAASGSTFSRYAMGWYRQAPGKVRELVAAISWGGNTYYADSVKGRFTISRDNAKNTVYLQMNSLKPEDTAVYYCNRYSKLYNTMDYWGQGTQVTVSS | high polyreactivity |
| QVQLVESGGGLVQAGGSLRLRCAASGITFRNYAMGWYRQAPGKEMEFVATISRRAGSTYYADSVKGRFTISRDNAKNTVYLQMNRLKPEDTAVYYCAVRPSYVYFLGARYDYWGQGTQVTVSS | high polyreactivity |
| QVQLVESGGGLVQAGGSLRLSCAASGSIFEPYVMGWYRQAPGKERELVAAIRQTGGSTYYADSVKGRFTISRDNAKNTVYLQMNSLKPEDTAVYYCNAEQNPSALYDYRGVEGEMGYWGQGTQVTVSS | low polyreactivity |
| QVQLVESGGGLVQAGGSLRLSCAASGIIFGSNAMGWYRQSPGKERELVAAISRNGGRTYYADSVKGRFTISRDNAKNTVYLQMNSLKPEDTAVYYCATRWPHYGGYYYWGQGTQVTVSS | high polyreactivity |
| QVQLVESGGGLVQAGGSLRLSCAASGRTFSGYAMGWYRQAPGKERELVAAIDRGDGTNYADSVKGRYTISRDNAKNTVYLQMNSQIPEDTAVYYCAGDYSDGSTSLTYTGFVYWGQGTQVTVSS | low polyreactivity |
| QVQIVESGGGLVQAGGSLRLSCAASRIIFSTYAMGWYRQAPGKEREFVAAITSTGSTNYADSVKGRFTISRDNEKNTVYLQMNSLKPEDTAVYYCAARYAGPSPTDTGHDYWGQGTQVTVSS | low polyreactivity |
| QVQLVESGGGLVQAGGSLRLSSAASGSTFRWYAMGWSRQEPGKEREFVAAITWSGGRTYYADSVKGRFTISRDNAKNTVFLQLNSLKPEDTAVYYCNAYDYGYSFNYWGQGTQVTLSS | high polyreactivity |
| QVQLVESGGGLVQAGGSLRLSCAASGSIFTCNAMGWYRQAPGKERELVAAISYISGGTYYADSVKGRFTISRDNAKNTVYLQMNSLKPEDTAVYYCAAVVYYYTYHYWGQGTQGTVSS | low polyreactivity |
| QVQLVESGGGLVQAGGSLRLSCAASGSTLVGNAMGWYRQAPGKERELVATIDLSDDITYYADSVKGRFTISRDKAKNTVYLQMNSLKPEDTAVYYCAAEYYLYSTYTVSYWKYDYWGQGTQVTVSS | high polyreactivity |
| QVQLVESGGGLVQAGRSLRLSCAASGFTFSWYTMGWYRQAPGKERELVAAISSSGGNTYYADSVKGRFTISRDNAKNTVYLQMNSLKPEDNAVYYCVARFGSYGYYYWGQGTQVTVSS | high polyreactivity |
| QVQLVESGGGLVQAGGSLRLSCAASGSTFKYYAMGWYRQAPGKERELVARISSGGRTYYADSVKGRFTISRDNAKNTVYLQMNSLKPEDTAVYYCNAQGYTTYRGDYWGQGTQVTVSS | high polyreactivity |
| QVQLVESGGGLVQAGGSLRITCAASGSTFYGKSMGLYRQAPGKERELVAAISRGGGSTYYADSVKGRFTISRDNAKNTVYLQMNSLIPEDTAVYYCAGTRYLHPWYYPYYYWGQGTQVTVSS | low polyreactivity |
| QVQLVESGGGLVQAGGSLRLSCAASGSTFYPYAMGWYRQAPGKERELVAAITSSGGSTYYADSVKGRFTISRDNAKNTVYLQMNSLKPEDSAVYYCAKLHVPPVHYDYWGQGTQVTVSS | low polyreactivity |
| QVQLVESGGGLVQAGGSLRLTCAASGRTFYWNVMGWYRQAPGKERELVAITTSGGSTYYADAVKGRFTISRDNAKNTVYLQMNSLKPEDTAVYYCAAQWRSYYDQYGYDYWGQGTQVTVSS | low polyreactivity |
| QVQLVESGGGLVQAGGSLRLSCAASGFTFGWNAMGWYRQAPGKERELVAAITSGGITNYADSVKGRFTISRDNAKNTVYLQMNSLKPEDTAVYYCNARPTSRRSWYYWKGYDYWGQGTQVTVSS | high polyreactivity |
| QVQLLESGGGLVQAGGSDRLSCAASGSIFSFNAMGWYRQAPGKERELVAAISRGGSTYYADSVKGRFTISRDNAKNTVYLQLNSLKPEDTAVYYCAADIYGHSYSYYLGEYWGQGTQVTVSS | high polyreactivity |
| QVQLVESGGGLVQAGGSLRLSCAASGRIFPGYTMGWYRQAPGKERELVAGISRSGGRTYYADSVKGRFTISRDNAKNTVYLQMNSLKPEDTAVYYCAADGYPGRRYTGMDYWGQGTQVTVSS | high polyreactivity |
| QVQHVESLGGLVQAGGSLRLSCAASGIIFGYYAMGWYRQAPGKERELVAAISRRGGSTYYADSVKGRFTISRDNAKNTVYLQMNSLKPEDTAVYYCAAVELRLSTPDMESWGQGTQVTVSS | high polyreactivity |
| QVQLVESGGGLVQAGGSLRLSCAASGFIFGLNAMGWYRQAPGKERELVAVIAFSGGSTYYADSVKGRFTISRDNAKNTVYLQMNSLKPEDTAVYYCNAVTRYPHPREYDYWGQGTQVTVSS | high polyreactivity |
| QVQLVESGGGLVQAGGSLRLSCAASGITFRRYAMGWYRQAPGKERELVASITSGGSTNYADSVKGRFTISRDNAKNTVYLQMNSLKPEDTAVYYCAADSRWGMDYWGQGTQVTVSS | high polyreactivity |
| QVQLVESGGGLVQAGRCLRLSCAASGITFVPNAMGWSRQAPGKERELVAAISSGGTYADSVKGRFTISRDNAKNTVYLQMNSLKPEDTALYYCNADTDYIRWIYGYWGQVTQVTVSS | low polyreactivity |
| QVQLVESGGGLDQAVGSLRLSSAASGTTFDKNDMGLYRQAPAKERELVAAISGGSTNYADSVKGRFTISRDNAKNTVYLQMNSLKPEDTAVYYCAARPHAHSDYWGQGTQVTVSS | low polyreactivity |
| QVQLVESGGGLVHAGRSLRLSCAASGFIFVRNAMGWYRQAPGKERELVAAITRSGGSTSYADSVKGRFTISRDNEKNTVYLQMNSLKPEDTAVYYCAAQYGYWGQGTQVTVSS | high polyreactivity |
| QVQLVESGGGLVQAGGSLRLSCAASGITLALYAMGWYIQAPGKERELVAAISWTGGSTYYADSVKGRFTISRDNAKNTVYLQMNSLKPEDPAVYYCNAVPGPPHSYLGGDYWGQGTQVTVSS | high polyreactivity |

From the nanobody polyreactivity screen of Harvey et al. (2022)
